The values that follow come from the supplement of paper PMC10567573.

± gives the standard deviation.

The data set can be described thus: protein stability index of a GFP-peptide fusion (GPS, HEK-293T) (PSI 1-6); higher = more stable.
Setting [1] is: treatment: DMSO, c terminus: a fixed tail appended.
Where [2] appears, read: treatment: MLN4924 1 uM, 8 h, c terminus: a fixed tail appended.
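Also: 24-mer peptide tiles fused after GFP, lentivirally expressed, FACS-sorted into six equal bins by GFP/DsRed ratio, decoded by Illumina sequencing, PSI is the read-weighted mean bin number.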

As for NLIKSENYGKILVEKNEHCIENNI [R3HDM1], the protein stability index by setting is: under setting [1], 3.5 ± 0.5; under setting [2], 3.49 ± 0.65.

Consider NLIYRDVKPENFLIGRPGNKTQQV [CSNK1G3], for which the protein stability index amounted to 3.27 ± 0.1 under setting [1] and 3.25 ± 0.22 under setting [2].

Turning to NLLLAKGANINAFDKKDRRALHWA [ANKRD44], the protein stability index is, setting by setting: under setting [1], 2.32 ± 0.34; under setting [2], 2.5 ± 0.17.

As to NLPCNKFKNRLVNIMPYESTRVCL [PTPRD], the protein stability index runs as follows: under setting [1], 2.15 ± 0.23; under setting [2], 2.65 ± 0.96.

As to NMEELTEVITAAEFHPHHCNTFVY [PPP2R2B], the protein stability index reads like this: under setting [1], 2.38 ± 0.25; under setting [2], 2.59 ± 0.33.

For NMLFQQNKDGIGEICLWGRHIFMG [ACSBG2], the protein stability index came out at 2.3 ± 0.33 under setting [1] and 2.3 ± 0.54 under setting [2].

As to NNDCRIYVGNLPPDIRTKDIEDVF [SRSF1], the protein stability index is 3.09 ± 0.31 under setting [1] and 3.3 ± 0.37 under setting [2].

Turning to NPFQDPAVIQHRPSRQYATLDVYN [SCAMP3], the protein stability index is, setting by setting: under setting [1], 3.6 ± 0.28; under setting [2], 3.62 ± 0.19.

As for NPKWTKWLQKLCCPCCFGRDCLVL [PI4K2A], the protein stability index by setting is: under setting [1], 2.79 ± 0.3; under setting [2], 2.72 ± 0.15.

With NPNSSSGKGSGGNAGSYIPSYTSW [DLX1], the protein stability index runs as follows: under setting [1], 3.44 ± 0.14; under setting [2], 3.43 ± 0.4.

Consider NQSVEPKKEEPEPETEAVSSSQEI [ZMYND11], for which the protein stability index under setting [1] amounted to 5.25 ± 1 and the protein stability index under setting [2] came out at 5.29 ± 0.52.

For NRRGGPPFAFVEFEDPRDAEDAVY [SRSF1], the protein stability index came out at 3.91 ± 0.21 under setting [1] and 4.21 ± 0.26 under setting [2].

NSASDPSLKDGLSDSDSELSSSEG [PSD2]: the protein stability index by setting is: under setting [1], 5.69 ± 0.14; under setting [2], 5.61 ± 0.19.

Regarding NSDQTTCRIQDLCAMEDHNCEQLC [MATN2], the protein stability index worked out at 4.04 ± 0.29 under setting [1] and 4.05 ± 0.23 under setting [2].

Turning to NSKEDAFSGTDWMLEKMDLKEFDL [ATF4], the protein stability index reads like this: under setting [1], 4.6 ± 0.26; under setting [2], 4.55 ± 0.2.

With NSSVWNSHLQTNYSKTFQRSNVDF [NECAB1], the protein stability index reads like this: under setting [1], 2.65 ± 0.18; under setting [2], 2.77 ± 0.32.

With NTLSVSYKKGRMMKDISNLEENDE [SLC6A17], the protein stability index reads like this: under setting [1], 4.91 ± 0.3; under setting [2], 5.08 ± 0.23.

Consider NTQTPVQPPPPPPPPPMQPTVPSA [CCDC6], for which the protein stability index under setting [1] worked out at 5.05 ± 0.48 and the protein stability index under setting [2] came to 5 ± 0.1.

With NVIETCKEAGVQKLILTSSASVIF [NSDHL], the protein stability index is, setting by setting: under setting [1], 2.69 ± 0.27; under setting [2], 2.86 ± 0.71.

For NVLKIAPESAIKFMAYEQIKRLVG [SLC25A25], the protein stability index runs as follows: under setting [1], 3.07 ± 0.54; under setting [2], 3.04 ± 0.67.

NVMTQSFGAVNLSSPSNMLPVRPQ [CLINT1]: the protein stability index is, setting by setting: under setting [1], 3.86 ± 0.2; under setting [2], 3.99 ± 0.51.

Regarding NWATTPSSQKKDTSSSTVVSTQRS [TIA1], the protein stability index runs as follows: under setting [1], 4.83 ± 0.19; under setting [2], 4.92 ± 0.18.

Turning to PACLGQPHTPGKPTSSCTSRSAPP [FOXJ1], the protein stability index worked out at 4.51 ± 0.13 under setting [1] and 4.69 ± 0.11 under setting [2].

With PAFTVWCGSFQVTTGLQVPSAVRC [FSD1], the protein stability index runs as follows: under setting [1], 2.63 ± 0.6; under setting [2], 2.56 ± 0.54.

Take PAPPSDALLDLHFPSDHLGDLGDP [TFE3]: the protein stability index reads like this: under setting [1], 5 ± 0.23; under setting [2], 5.1 ± 0.17.

PATGRSGPLPPPPPGAGGPPMPPP [WAS]: the protein stability index under setting [1] was found to be 4.74 ± 0.28 and the protein stability index under setting [2] worked out at 4.88 ± 0.22.

PAVRQRVIEEAKTAFLLNIQLFEE [HMOX1] returned a protein stability index under setting [1] of 2.66 ± 0.37 and a protein stability index under setting [2] of 3.17 ± 0.26.

With PCELPCKEYDVARNTGAYTSSGLA [TEKT4], the protein stability index by setting is: under setting [1], 4.18 ± 0.19; under setting [2], 4.23 ± 0.13.

Regarding PDCGKAFVSRYKLMRHMATHSPQK [PLAGL1], the protein stability index by setting is: under setting [1], 2.88 ± 0.24; under setting [2], 3 ± 0.22.

PDECGKTEFTRFLCSSPLEAETPP [ATE1]: the protein stability index was 4.8 ± 0.071 under setting [1] and 4.88 ± 0.13 under setting [2].

Consider PDEMRMQALLIRERILGPSHPDTS [FEM1A], for which the protein stability index under setting [1] was 3.29 ± 0.26 and the protein stability index under setting [2] was determined as 3.56 ± 0.19.

For PDPDAWLRALGELLRRDLGVGTSM [FANCE], the protein stability index came out at 1.86 ± 0.28 under setting [1] and 1.9 ± 0.2 under setting [2].

In the case of PEAAVLFRQMATALAHCHQHGLVL [TRIB3], the protein stability index by setting is: under setting [1], 2.92 ± 0.55; under setting [2], 2.88 ± 0.48.

Turning to PEARSRDATPPVSPINMEDQERIK [JUNB], the protein stability index runs as follows: under setting [1], 5.37 ± 0.38; under setting [2], 5.42 ± 0.33.

Turning to PEEELDFFEILRLFFPVIYDVKYL [CNOT7], the protein stability index by setting is: under setting [1], 2.35 ± 0.51; under setting [2], 2.47 ± 0.61.

Take PEELRKVFITYSMDTAMEVVKFVN [TRAF3IP2]: the protein stability index is 2.24 ± 0.46 under setting [1] and 2.08 ± 0.37 under setting [2].

Take PEFELLWKDIIHNPQALSPQFTGI [INTS3]: the protein stability index was found to be 2.16 ± 0.15 under setting [1] and 2.21 ± 0.32 under setting [2].

On to PENTNRQLLLQFERLVVLDYIIRN [PI4K2A], for which the protein stability index reads like this: under setting [1], 2.77 ± 0.34; under setting [2], 2.56 ± 0.68.

In turn, PFTRRYYKEKFGITDLPRIDVSKR [EFHC1] came in with a protein stability index under setting [1] of 3.01 ± 0.36 and a protein stability index under setting [2] of 3.3 ± 0.095.

On to PGAEEAQDPEGKGEQEHSQQKEEE [CHGA], for which the protein stability index turned out to be 5.65 ± 0.15 under setting [1] and 5.58 ± 0.43 under setting [2].

For PGAPPGRDLASVPPELTASRQSFR [DVL3], the protein stability index under setting [1] was 4.7 ± 0.23 and the protein stability index under setting [2] was found to be 4.84 ± 0.12.

Take PGDFDRNVPRICGVCGDRATGFHF [VDR]: the protein stability index is 2.19 ± 0.13 under setting [1] and 2.64 ± 0.27 under setting [2].

Take PGPAPGSPGELEEDLLLPGACPGA [WEE1]: the protein stability index by setting is: under setting [1], 5.24 ± 0.52; under setting [2], 5.49 ± 0.13.

For the sequence PGPPAAPRARRRLGSGPDRELRKP [PWWP2B], the protein stability index is, setting by setting: under setting [1], 5.03 ± 0.56; under setting [2], 5.12 ± 0.35.

For PGPREALSQLRVLCCEWLRPEKHT [ZNF232], the protein stability index was determined as 2.36 ± 0.21 under setting [1] and 2.15 ± 0.4 under setting [2].

PGQEAQRVVCGIDSSMILTVPGQA [NEK8]: the protein stability index runs as follows: under setting [1], 3.78 ± 0.23; under setting [2], 3.81 ± 0.22.

Consider PGRRDEDAGEGIQCSQRMLSFSDA [TMEM175], for which the protein stability index under setting [1] is 5.07 ± 0.18 and the protein stability index under setting [2] amounted to 4.91 ± 0.3.

Take PGSNLNLLTNNSGTPKDHDSPENG [ETS2]: the protein stability index came out at 5.33 ± 0.22 under setting [1] and 5.31 ± 0.26 under setting [2].

In the case of PKAQSAMSPYLVPDTQALCHHLPV [SMG5], the protein stability index under setting [1] amounted to 3.34 ± 0.2 and the protein stability index under setting [2] was determined as 3.38 ± 0.12.

For the sequence PKWGWEQLEVTCTPYLKETLNSIW [POMT2], the protein stability index under setting [1] came to 2.49 ± 0.58 and the protein stability index under setting [2] turned out to be 2.12 ± 0.61.

Turning to PLVLSYIDLSAWCYYCQAYVHHQA [HDAC6], the protein stability index stood at 2.97 ± 0.81 under setting [1] and 3.27 ± 0.49 under setting [2].

As to PLVTMDDAMERTVQSFRHLRRVK [NSDHL], the protein stability index is, setting by setting: (treatment: DMSO, c terminus: native) 3 ± 0.25; (treatment: MLN4924 1 uM, 8 h, c terminus: native) 3.23 ± 0.18.

Take PMDLSTVKRKMDGREYPDAQGFAA [BRD3]: the protein stability index by setting is: under setting [1], 4.21 ± 0.2; under setting [2], 4.38 ± 0.43.

PPASARRLSVPRDSACDESSCIPK [IRX6]: the protein stability index runs as follows: under setting [1], 5.33 ± 0.16; under setting [2], 5.31 ± 0.14.

For the sequence PPGDIMFLLVQRFGELMRKLWNPR [USP39], the protein stability index stood at 2.77 ± 0.31 under setting [1] and 2.77 ± 0.17 under setting [2].

Sequence PPPHLLPEKHQVPEKLIWGDQDPL [WDR88] registered a protein stability index under setting [1] of 4.53 ± 0.23 and a protein stability index under setting [2] of 4.44 ± 0.15.

Regarding PQLRICLRVSPAEQPRLEFLMRKC [FBXO33], the protein stability index reads like this: under setting [1], 2.15 ± 0.48; under setting [2], 2.11 ± 0.22.

As to PQSLPSTPKAAWIREEGRCSSSDD [PBXIP1], the protein stability index under setting [1] was found to be 5.25 ± 0.2 and the protein stability index under setting [2] came to 5.27 ± 0.14.

As to PQVLADLGSFESPANSETSDLTLY [PCDHGA10], the protein stability index stood at 4.19 ± 0.36 under setting [1] and 4.38 ± 0.34 under setting [2].

Take PRLHIVKADENNGFGSKNTAFCTH [TBX5]: the protein stability index was found to be 3.43 ± 0.12 under setting [1] and 3.28 ± 0.049 under setting [2].

Take PSASLGKASSRKPFGILSPNVLCS [FBXO34]: the protein stability index runs as follows: under setting [1], 2.71 ± 0.23; under setting [2], 2.8 ± 0.11.

As for PSIYHTMASPCSAMAYHHDSRRIF [WDFY1], the protein stability index by setting is: under setting [1], 2.14 ± 0.72; under setting [2], 2.18 ± 0.4.

Consider PSLQAWNDAPCDKTFLFICKRPYV [CD207], for which the protein stability index reads like this: under setting [1], 2.17 ± 0.28; under setting [2], 2.2 ± 0.21.

Take PSSYNCSQSILPLEHGSIYIPSSY [ESR2]: the protein stability index runs as follows: under setting [1], 2.17 ± 0.2; under setting [2], 2.26 ± 0.26.

Regarding PSVPDNAELVLLTLGQAWQGYVSD [DFFB], the protein stability index stood at 2.64 ± 0.52 under setting [1] and 2.84 ± 0.32 under setting [2].

With PSVYHAMPSPCSCMSFNPETRRLS [WDFY2], the protein stability index was determined as 2.57 ± 0.36 under setting [1] and 2.88 ± 0.41 under setting [2].

PTCPVCKDRASPADLRTNHTLNNL [TRIM35]: the protein stability index reads like this: under setting [1], 3.62 ± 0.21; under setting [2], 3.9 ± 0.46.

PTLSCEKYLTYDQLRKQKKKTGKS [ELOA2] gave a protein stability index under setting [1] of 3.98 ± 0.19 and a protein stability index under setting [2] of 4.57 ± 0.24.

Regarding PVPVIVSNFNYFYHRETEGEEQSQ [KCNA3], the protein stability index by setting is: under setting [1], 3.81 ± 0.34; under setting [2], 4.15 ± 0.28.

Regarding PVVKLLHNRSNNKYSYTSTSDDNL [KCTD13], the protein stability index came to 3.82 ± 0.16 under setting [1] and 3.94 ± 0.19 under setting [2].

Take PWGFRLQGGKDFNVPLSISRLTPG [PDLIM7]: the protein stability index under setting [1] was found to be 2.66 ± 0.18 and the protein stability index under setting [2] amounted to 2.66 ± 0.29.

Regarding QALGEHLKLRQQVIATATVYFKRF [CCNC], the protein stability index was 2.54 ± 0.55 under setting [1] and 2.48 ± 0.42 under setting [2].
